Data set [1] concerns the target T1, FoxM1-DBD (FoxM1C 222-360), crystal (UniProt Q08050 222-360).
T1 sequence: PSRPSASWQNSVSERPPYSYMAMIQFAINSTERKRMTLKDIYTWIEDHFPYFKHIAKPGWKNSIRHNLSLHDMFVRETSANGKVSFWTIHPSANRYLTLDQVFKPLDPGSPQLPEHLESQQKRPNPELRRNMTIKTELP
The data set can be described thus: X-ray crystallography 2.2 A.

Data set [2] addresses T2, FoxM1-DBD (FoxM1C 222-360) (UniProt Q08050 222-360).
T2 sequence: T1 sequence
The data set can be described thus: fluorescence anisotropy. On the technique in general: In fluorescence polarisation assays a small probe gives low polarisation when free and higher when bound to something large.

The target of data set [3] is T2, FoxM1-DBD (FoxM1C 222-360). The data set is described as follows: fluorescence anisotropy. The source holds these as a separate data set.
Data set [4] addresses T2, FoxM1-DBD (FoxM1C 222-360). The data set is described as follows: competition fluorescence anisotropy.

Where two headings read alike, the source gives them in different places.

By Kd is commonly meant a measure of binding affinity in units of concentration. Higher therefore signals a looser complex. The term IC50 denotes the point on the concentration scale where inhibition reaches its midpoint. Low readings indicate greater potency in that assay, high ones weaker potency in that assay.

B1: Fm1-2x-19nt-aa/tt (dsDNA)
DNA 1: AAATTGTTTATAAACAGCCCG
DNA 2: TTCGGGCTGTTTATAAACAAT
Consider B1, for which the binding result in data set [1] is listed as “binds”.

B2: 11 bp consensus, TAMRA (dsDNA)
DNA 1: CCATAAACAAC
DNA 2: GTTGTTTATGG
In the case of B2, the Kd is 7.5 ± 0.8 µM in data set [2] and 7 ± 0.3 µM in data set [3].

B3: 1x (dsDNA)
DNA 1: CCGATTGTTTAGCCCGTGCC
DNA 2: GGCACGGGCTAAACAATCGG
Turning to B3, the IC50 in data set [4] came to 7 µM. In other words, the single-digit micromolar range.

Source of the values: PMC2910063.
